Reference: paper PMC5643494, “TRPA1–FGFR2 binding event is a regulatory oncogenic driver modulated by miRNA-142-3p” (Nature Communications, 2017)
Numbering of substitutions follows the chain as printed. Names and notes keep the numbering of the source. Each block holds one molecule with its values, some of them ahead of it.

Tests used:
[1] = target: TRPA1-GFP truncated of 5 ankyrin repeats (Δ5-GFP); assay: FRET or BRET; FLIM-FRET in fixed serum-starved HEK 293T cells co-expressing FGFR2-RFP with Δ5-GFP or Δ10-GFP; shift of GFP lifetime against empty GFP vector
[2] = target: T1, purified full-length human TRPA1 (human, UniProt O75762 1-1119, biotinylated with EDC-based carboxyl-biotinylation reagent (streptavidin pull-down); labeled with Alexafluor 488 (MST); unlabelled in the GST pull-down); assay: pull-down; GST constructs on glutathione-sepharose beads incubated with purified full-length TRPA1; western blot; conditions: both partners purified
T1 construct: human TRPA1, full length; kept in PBS with 0.014% F-14; also called hTRPA1; full-length purified TRPA1; source: Pichia pastoris, purified (Ni-NTA)
T1 sequence (O75762 whole entry): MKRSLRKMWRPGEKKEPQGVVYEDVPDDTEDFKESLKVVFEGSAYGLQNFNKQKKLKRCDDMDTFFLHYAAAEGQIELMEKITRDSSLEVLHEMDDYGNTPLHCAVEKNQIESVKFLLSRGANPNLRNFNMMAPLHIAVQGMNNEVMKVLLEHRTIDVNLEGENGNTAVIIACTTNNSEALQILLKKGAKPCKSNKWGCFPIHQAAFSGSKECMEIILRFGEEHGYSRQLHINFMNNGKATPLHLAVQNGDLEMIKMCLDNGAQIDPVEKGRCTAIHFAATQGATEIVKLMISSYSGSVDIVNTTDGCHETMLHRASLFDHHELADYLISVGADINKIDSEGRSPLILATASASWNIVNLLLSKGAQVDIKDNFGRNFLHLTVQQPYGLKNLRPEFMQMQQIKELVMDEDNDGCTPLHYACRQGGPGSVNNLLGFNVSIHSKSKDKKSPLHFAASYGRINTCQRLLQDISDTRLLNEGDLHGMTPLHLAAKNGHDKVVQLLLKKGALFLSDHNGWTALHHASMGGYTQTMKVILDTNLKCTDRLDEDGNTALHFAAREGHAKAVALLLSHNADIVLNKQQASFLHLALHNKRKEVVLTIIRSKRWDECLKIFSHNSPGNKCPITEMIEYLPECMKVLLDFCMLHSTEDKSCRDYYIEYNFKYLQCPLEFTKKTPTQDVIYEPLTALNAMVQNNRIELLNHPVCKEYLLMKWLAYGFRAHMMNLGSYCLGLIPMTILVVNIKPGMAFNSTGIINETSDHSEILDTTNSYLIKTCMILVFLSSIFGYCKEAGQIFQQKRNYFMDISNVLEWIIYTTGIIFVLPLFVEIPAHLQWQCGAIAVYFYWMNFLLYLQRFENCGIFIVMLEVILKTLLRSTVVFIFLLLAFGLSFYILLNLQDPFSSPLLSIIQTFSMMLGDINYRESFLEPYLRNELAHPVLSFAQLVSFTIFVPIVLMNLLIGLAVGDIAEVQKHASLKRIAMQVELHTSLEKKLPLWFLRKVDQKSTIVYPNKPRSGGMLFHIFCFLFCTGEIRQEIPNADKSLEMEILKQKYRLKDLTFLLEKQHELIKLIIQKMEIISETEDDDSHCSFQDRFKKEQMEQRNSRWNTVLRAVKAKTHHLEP

TRPA1-GFP truncated of 5 ankyrin repeats (Δ5-GFP), sequence (O75762 whole entry, stated change not applied, the tested form may be a part): as the sequence (O75762 whole entry) above

shift of GFP fluorescence lifetime (FLIM-FRET) [1]: 0.09 ns
Molecule: FGFR2-RFP (from UniProt P21802 22-821) (receptor)

binding result [2]: binds
B1: GST fusion of FGFR2 residues 764-821 with P804A (C4) (domain or fragment, UniProt P21802 764-821, looked up)
chain: TTNEEYLDLSQPLEQYSPSYPDTRSSCSSGDDSVFSPDPMAYEPCLPQYPHINGSVKT
notes: FGFR2, last 58 amino acids, residues 764-821, P804A

binding result [2]: binds
B2: GST fusion of the last 58 amino acids of FGFR2 (residues 764-821), wild-type construct (C) (domain or fragment, UniProt P21802 764-821, looked up)
chain: B1 chain with A41P
notes: FGFR2, last 58 amino acids, residues 764-821; PGEX vector
